Measurements taken from publication PMC7330101.

Target: SUN2 (human (endogenous in HUVECs)) (UniProt Q9UH99)
Test: proximity ligation; Duolink in situ PLA on fixed, saponin-permeabilised HUVECs with primary antibodies against SUN2 and Nesprin1; cells exposed to PS (12 ± 4 dynes/cm^2) or OS (0.5 ± 4 dynes/cm^2) for 6 h

Sequence of UniProt Q9UH99 (Q9UH99 whole entry): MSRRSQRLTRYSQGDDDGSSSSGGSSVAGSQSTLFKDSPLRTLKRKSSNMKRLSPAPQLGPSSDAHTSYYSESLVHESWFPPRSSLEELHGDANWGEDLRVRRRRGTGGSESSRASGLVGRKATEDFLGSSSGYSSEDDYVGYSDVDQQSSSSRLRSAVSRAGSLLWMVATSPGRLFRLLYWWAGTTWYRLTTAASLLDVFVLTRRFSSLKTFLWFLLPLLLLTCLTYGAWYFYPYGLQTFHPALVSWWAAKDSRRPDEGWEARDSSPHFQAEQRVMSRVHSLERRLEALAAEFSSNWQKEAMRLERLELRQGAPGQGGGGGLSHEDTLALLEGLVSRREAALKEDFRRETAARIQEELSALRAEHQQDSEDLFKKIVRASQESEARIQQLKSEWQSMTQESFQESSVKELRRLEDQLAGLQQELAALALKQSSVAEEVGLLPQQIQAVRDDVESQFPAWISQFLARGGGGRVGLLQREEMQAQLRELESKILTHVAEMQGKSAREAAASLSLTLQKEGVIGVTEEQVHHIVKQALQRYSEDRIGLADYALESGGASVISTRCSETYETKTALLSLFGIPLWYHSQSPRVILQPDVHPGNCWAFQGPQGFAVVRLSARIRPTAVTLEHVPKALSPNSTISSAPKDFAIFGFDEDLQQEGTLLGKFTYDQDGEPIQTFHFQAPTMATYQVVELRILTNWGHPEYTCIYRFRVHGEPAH

- PLA punctuated signals per cell (cells exposed to OS): 2 per cell
- PLA punctuated signals per cell (cells exposed to PS): 7 per cell
Substance: Nesprin1, Q8NF91 1-8797
